Data from article PMC9269880 (Science Advances, 2022).

Tests used:
H3K9me3 mononucleosome = H3K9me3 mononucleosome (UniProt P68431); assay: native gel or EMSA
cross-linking = biological target: the molecule itself; assay: cross-linking

Molecule: Swi6^2XCD-GST (recombinant, 6XHis tag cleaved)
- fold increase in H3K9me3 nucleosome binding specificity against WT Swi6 (H3K9me3 mononucleosome): 2 fold

B1: 3XFLAG-Swi6 (natural protein, S. pombe, UniProt P40381 1-328, looked up)
chain: MKKGGVRSYRRSSTSKRSVIDDDSEPELPSMTKEAIASHKADSGSSDNEVESDHESKSSSKKLKENAKEEEGGEEEEEDEYVVEKVLKHRMARKGGGYEYLLKWEGYDDPSDNTWSSEADCSGCKQLIEAYWNEHGGRPEPSKRKRTARPKKPEAKEPSPKSRKTDEDKHDKDSNEKIEDVNEKTIKFADKSQEEFNENGPPSGQPNGHIESDNESKSPSQKESNESEDIQIAETPSNVTPKKKPSPEVPKLPDNRELTVKQVENYDSWEDLVSSIDTIERKDDGTLEIYLTWKNGAISHHPSTITNKKCPQKMLQFYESHLTFRENE
- binding result (cross-linking): binds
